Data reported in PMC8299502.

T1: RbFox(RRM) (UniProt Q9NWB1 109-208)
T1 sequence: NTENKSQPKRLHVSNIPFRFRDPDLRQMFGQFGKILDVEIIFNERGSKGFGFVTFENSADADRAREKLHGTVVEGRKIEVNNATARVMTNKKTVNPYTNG

T2: Dazl(RRM) (Mus musculus, UniProt Q64368 32-117)
T2 sequence: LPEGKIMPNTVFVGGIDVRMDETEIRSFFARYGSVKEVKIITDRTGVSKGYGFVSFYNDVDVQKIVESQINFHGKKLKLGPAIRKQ


Tests used:
RbFox(RRM) = molecular target: T1, RbFox(RRM); assay: fluorescence anisotropy
Dazl(RRM) = molecular target: T2, Dazl(RRM); assay: fluorescence anisotropy

| Binder | binding result (RbFox(RRM)) | binding result (Dazl(RRM)) |
| --- | --- | --- |
| UCCUGCAUGUUUA (ssRNA) [RbFox cognate RNA] | binds | – |
| UUGUUCUUU (ssRNA) [Dazl cognate RNA] | – | binds |
